Measured values as given in PMC9482650, “Quantitative fragmentomics allow affinity mapping of interactomes” (Nature Communications, 2022).

T1: PARD3B_1, Q8TEW8
T1 sequence (Q8TEW8 196-299, limits assumed, looked up): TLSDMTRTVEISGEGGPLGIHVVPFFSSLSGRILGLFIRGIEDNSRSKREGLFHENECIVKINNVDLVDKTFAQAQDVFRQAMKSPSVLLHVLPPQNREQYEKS

T2: SNTG2, Q9NY99
T2 sequence (Q9NY99 68-166, limits assumed, looked up): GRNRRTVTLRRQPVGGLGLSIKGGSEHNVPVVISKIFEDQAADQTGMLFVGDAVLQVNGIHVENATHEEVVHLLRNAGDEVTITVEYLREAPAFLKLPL

T3: LNX2_2, Q8N448
T3 sequence (Q8N448 334-432, limits assumed, looked up): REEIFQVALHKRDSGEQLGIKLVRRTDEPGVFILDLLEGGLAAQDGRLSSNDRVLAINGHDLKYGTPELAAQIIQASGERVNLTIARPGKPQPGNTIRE

T4: GRIP1_4, Q9Y3R0
T4 sequence (Q9Y3R0 467-571, limits assumed, looked up): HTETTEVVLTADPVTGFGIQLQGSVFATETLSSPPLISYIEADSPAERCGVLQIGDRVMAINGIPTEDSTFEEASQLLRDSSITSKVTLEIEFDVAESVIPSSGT

T5: PDZD7_3, Q9H5P4
T5 sequence (Q9H5P4 857-944, limits assumed, looked up): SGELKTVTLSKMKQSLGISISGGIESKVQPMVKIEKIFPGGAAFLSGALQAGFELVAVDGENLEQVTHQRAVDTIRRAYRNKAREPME

T6: DFNB31_1, Q9P202
T6 sequence (Q9P202 135-233, limits assumed, looked up): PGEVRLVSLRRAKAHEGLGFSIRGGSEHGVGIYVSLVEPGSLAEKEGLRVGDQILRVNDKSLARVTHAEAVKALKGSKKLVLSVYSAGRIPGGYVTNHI

T7: SIPA1L2, Q9P2F8
T7 sequence (Q9P2F8 945-1036, limits assumed, looked up): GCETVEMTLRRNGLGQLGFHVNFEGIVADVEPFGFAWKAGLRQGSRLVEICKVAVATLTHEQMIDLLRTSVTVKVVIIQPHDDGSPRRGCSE

T8: MPP2, Q14168
T8 sequence (Q14168 180-250, limits assumed, looked up): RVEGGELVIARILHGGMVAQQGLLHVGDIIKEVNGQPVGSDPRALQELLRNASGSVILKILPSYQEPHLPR

T9: SHANK1, Q9Y566
T9 sequence (Q9Y566 658-767, limits assumed, looked up): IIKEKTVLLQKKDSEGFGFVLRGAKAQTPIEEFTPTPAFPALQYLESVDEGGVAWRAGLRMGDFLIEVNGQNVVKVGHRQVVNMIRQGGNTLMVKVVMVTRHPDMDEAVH

T10: PTPN13_1, Q12923
T10 sequence (Q12923 1088-1188, limits assumed, looked up): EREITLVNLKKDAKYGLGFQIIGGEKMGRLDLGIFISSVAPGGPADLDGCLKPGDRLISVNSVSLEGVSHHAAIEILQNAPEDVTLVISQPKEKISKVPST

T11: DLG3_3, Q92796
T11 sequence (Q92796 374-475, limits assumed, looked up): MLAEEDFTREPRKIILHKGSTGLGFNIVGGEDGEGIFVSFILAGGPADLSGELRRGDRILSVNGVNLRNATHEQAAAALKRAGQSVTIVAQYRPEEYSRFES


What was measured:
Assay in all cases: holdup assay
Design in all cases: key: below the threshold = too weak to quantify, mostly under pKd 3.1 to 4
Conditions in all cases: plain residues with an end cap or a label only (N-terminal biotin on a linker: ado-ado)
LDB3, O75112 = biological target: LDB3, O75112
Chain of LDB3, O75112 (O75112 1-94): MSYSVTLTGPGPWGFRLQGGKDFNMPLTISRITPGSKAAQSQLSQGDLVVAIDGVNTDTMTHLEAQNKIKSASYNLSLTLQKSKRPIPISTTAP

LNX1_1, Q8TBB1 = biological target: LNX1_1, Q8TBB1
Chain of LNX1_1, Q8TBB1 (Q8TBB1 261-371): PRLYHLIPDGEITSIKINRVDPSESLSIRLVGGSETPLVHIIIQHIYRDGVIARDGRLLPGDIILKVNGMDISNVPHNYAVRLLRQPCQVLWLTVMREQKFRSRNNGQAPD

PARD3B_1, Q8TEW8 = biological target: T1, PARD3B_1, Q8TEW8
NHERF4_1, Q86UT5-2 = biological target: NHERF4_1, Q86UT5-2
Chain of NHERF4_1, Q86UT5-2 (Q86UT5 other isoform, or with tags, fused parts or gaps): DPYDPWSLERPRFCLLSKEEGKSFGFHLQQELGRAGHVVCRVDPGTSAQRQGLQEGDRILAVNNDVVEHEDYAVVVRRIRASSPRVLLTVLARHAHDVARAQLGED

GRASP, Q7Z6J2 = biological target: GRASP, Q7Z6J2
Chain of GRASP, Q7Z6J2 (Q7Z6J2 96-193): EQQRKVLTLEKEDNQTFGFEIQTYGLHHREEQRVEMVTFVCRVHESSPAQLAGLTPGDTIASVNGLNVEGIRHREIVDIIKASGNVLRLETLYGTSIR

NHERF2_2, Q15599 = biological target: NHERF2_2, Q15599
Chain of NHERF2_2, Q15599 (Q15599 142-238): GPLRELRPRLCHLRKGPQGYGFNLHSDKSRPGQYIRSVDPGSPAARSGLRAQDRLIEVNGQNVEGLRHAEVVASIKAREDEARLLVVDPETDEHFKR

FRMPD4, Q14CM0 = biological target: FRMPD4, Q14CM0
Chain of FRMPD4, Q14CM0 (Q14CM0 67-160): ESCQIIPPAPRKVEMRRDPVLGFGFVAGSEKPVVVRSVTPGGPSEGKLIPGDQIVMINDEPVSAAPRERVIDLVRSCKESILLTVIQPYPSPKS

SNTG2, Q9NY99 = biological target: T2, SNTG2, Q9NY99
LNX2_2, Q8N448 = biological target: T3, LNX2_2, Q8N448
SCRIB_3, Q14160 = biological target: SCRIB_3, Q14160
Chain of SCRIB_3, Q14160 (Q14160 999-1103): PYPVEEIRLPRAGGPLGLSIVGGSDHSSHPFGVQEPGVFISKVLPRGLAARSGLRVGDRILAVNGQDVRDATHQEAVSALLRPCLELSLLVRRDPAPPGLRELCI

GRIP1_4, Q9Y3R0 = biological target: T4, GRIP1_4, Q9Y3R0
MAGI2_6, Q86UL8 = biological target: MAGI2_6, Q86UL8
Chain of MAGI2_6, Q86UL8 (Q86UL8 1141-1229): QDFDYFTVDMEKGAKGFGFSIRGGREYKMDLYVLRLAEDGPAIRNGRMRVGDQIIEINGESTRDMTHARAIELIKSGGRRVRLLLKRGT

PDZD7_3, Q9H5P4 = biological target: T5, PDZD7_3, Q9H5P4
DFNB31_1, Q9P202 = biological target: T6, DFNB31_1, Q9P202
SIPA1L2, Q9P2F8 = biological target: T7, SIPA1L2, Q9P2F8
GRID2IP_2, A4D2P6 = biological target: GRID2IP_2, A4D2P6
Chain of GRID2IP_2, A4D2P6 (A4D2P6 272-370): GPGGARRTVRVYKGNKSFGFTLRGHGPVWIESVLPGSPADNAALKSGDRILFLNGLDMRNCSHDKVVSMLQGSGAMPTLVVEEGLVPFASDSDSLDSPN

MPP2, Q14168 = biological target: T8, MPP2, Q14168
IL16_1, Q14005 = biological target: IL16_1, Q14005
Chain of IL16_1, Q14005 (Q14005 210-306): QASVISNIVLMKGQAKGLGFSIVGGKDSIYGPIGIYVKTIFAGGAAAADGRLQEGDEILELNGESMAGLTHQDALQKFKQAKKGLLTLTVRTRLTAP

NHERF4_2, Q86UT5 = biological target: NHERF4_2, Q86UT5
Chain of NHERF4_2, Q86UT5 (Q86UT5 220-308): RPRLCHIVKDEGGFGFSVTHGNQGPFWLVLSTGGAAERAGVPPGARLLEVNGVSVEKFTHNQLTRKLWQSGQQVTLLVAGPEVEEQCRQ

Inadl_9, Q8NI35 = biological target: Inadl_9, Q8NI35
Chain of Inadl_9, Q8NI35 (Q8NI35 1530-1615): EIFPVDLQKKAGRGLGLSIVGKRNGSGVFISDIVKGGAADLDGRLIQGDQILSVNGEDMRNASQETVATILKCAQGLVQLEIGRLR

SHANK1, Q9Y566 = biological target: T9, SHANK1, Q9Y566
ARHGEF12, Q9NZN5-2 = biological target: ARHGEF12, Q9NZN5-2
Chain of ARHGEF12, Q9NZN5-2 (Q9NZN5 other isoform, or with tags, fused parts or gaps): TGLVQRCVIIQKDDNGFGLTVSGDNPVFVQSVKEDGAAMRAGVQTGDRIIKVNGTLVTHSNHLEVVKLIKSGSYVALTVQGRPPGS

PTPN13_1, Q12923 = biological target: T10, PTPN13_1, Q12923
CASK, O14936 = biological target: CASK, O14936
Chain of CASK, O14936 (O14936 487-570): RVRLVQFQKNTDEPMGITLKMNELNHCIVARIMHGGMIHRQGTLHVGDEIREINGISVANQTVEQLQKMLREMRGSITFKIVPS

DLG3_3, Q92796 = biological target: T11, DLG3_3, Q92796
MAGI1_1, Q96QZ7 = biological target: MAGI1_1, Q96QZ7
Chain of MAGI1_1, Q96QZ7 (Q96QZ7 1-106): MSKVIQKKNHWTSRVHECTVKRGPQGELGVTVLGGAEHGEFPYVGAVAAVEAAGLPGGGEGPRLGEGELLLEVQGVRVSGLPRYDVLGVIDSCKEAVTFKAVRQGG

| Binder | pKd (LDB3, O75112) | pKd (LNX1_1, Q8TBB1) | pKd (PARD3B_1, Q8TEW8) | pKd (NHERF4_1, Q86UT5-2) | pKd (GRASP, Q7Z6J2) | pKd (NHERF2_2, Q15599) | pKd (FRMPD4, Q14CM0) | pKd (SNTG2, Q9NY99) | pKd (LNX2_2, Q8N448) | pKd (SCRIB_3, Q14160) | pKd (GRIP1_4, Q9Y3R0) | pKd (MAGI2_6, Q86UL8) | pKd (PDZD7_3, Q9H5P4) | pKd (DFNB31_1, Q9P202) | pKd (SIPA1L2, Q9P2F8) | pKd (GRID2IP_2, A4D2P6) | pKd (MPP2, Q14168) | pKd (IL16_1, Q14005) | pKd (NHERF4_2, Q86UT5) | pKd (Inadl_9, Q8NI35) | also measured |
| --- | --- | --- | --- | --- | --- | --- | --- | --- | --- | --- | --- | --- | --- | --- | --- | --- | --- | --- | --- | --- | --- |
| MLSKQSESAI [FLVCR1, Q9Y5Y0] | below the threshold | 3.52 | 3.47 | 3.6 | below the threshold | below the threshold | below the threshold | 3.81 | below the threshold | 4.61 | below the threshold | below the threshold | 3.78 | 4.86 | below the threshold | below the threshold | below the threshold | below the threshold | below the threshold | below the threshold | pKd (SHANK1, Q9Y566): below the threshold; pKd (ARHGEF12, Q9NZN5-2): 3.68; pKd (PTPN13_1, Q12923): below the threshold; pKd (CASK, O14936): below the threshold; pKd (DLG3_3, Q92796): below the threshold; pKd (MAGI1_1, Q96QZ7): below the threshold |
| QSARLWETSI [ADAM22, Q9P0K1] | below the threshold | 4.43 | 3.78 | below the threshold | 4.17 | 3.83 | below the threshold | 4.86 | below the threshold | 5.32 | below the threshold | 4.22 | 5.16 | 5.41 | below the threshold | 4.3 | below the threshold | 3.68 | below the threshold | below the threshold | pKd (SHANK1, Q9Y566): 3.72; pKd (ARHGEF12, Q9NZN5-2): 4.73; pKd (PTPN13_1, Q12923): below the threshold; pKd (CASK, O14936): below the threshold; pKd (DLG3_3, Q92796): 4.29; pKd (MAGI1_1, Q96QZ7): below the threshold |
| SAAKVLTSMC [GHRHR, Q02643] | below the threshold | 3.86 | below the threshold | 4.35 | 4.32 | below the threshold | below the threshold | below the threshold | below the threshold | 3.61 | below the threshold | below the threshold | 4.7 | below the threshold | below the threshold | 4.38 | below the threshold | below the threshold | below the threshold | below the threshold | pKd (SHANK1, Q9Y566): 3.89; pKd (ARHGEF12, Q9NZN5-2): 4.65; pKd (PTPN13_1, Q12923): below the threshold; pKd (CASK, O14936): below the threshold; pKd (DLG3_3, Q92796): below the threshold; pKd (MAGI1_1, Q96QZ7): below the threshold |
| TASPAKETSF [SLC2A7, Q6PXP3] | 3.65 | below the threshold | 3.96 | 4 | below the threshold | 4.66 | below the threshold | below the threshold | below the threshold | 5.14 | below the threshold | 4.1 | below the threshold | 3.94 | below the threshold | below the threshold | below the threshold | below the threshold | below the threshold | below the threshold | pKd (SHANK1, Q9Y566): below the threshold; pKd (ARHGEF12, Q9NZN5-2): 3.59; pKd (PTPN13_1, Q12923): below the threshold; pKd (CASK, O14936): below the threshold; pKd (DLG3_3, Q92796): below the threshold; pKd (MAGI1_1, Q96QZ7): below the threshold |
